Experimental data reported in publication doi:10.1101/2024.04.05.588253v1.

Key:
Assay in all cases: purified protein
Conditions in all cases: 0.1 mM NADPH, 100 mM Tris pH 7.5, 50 °C, 2% p-dioxane
purified protein [1] = substrate: CC(=O)c1ccc(O)cc1; assay type: biochemical, Tepidiforma thermophila
purified protein [2] = substrate: CC(=O)c1cccc(O)c1; assay type: biochemical, Tepidiforma thermophila
purified protein [3] = substrate: CCCCCC(C)=O
purified protein [4] = substrate: CC(=O)c1ccccc1
purified protein [5] = substrate: CCCCCCC(C)=O
purified protein [6] = substrate: CC(=O)CCc1ccccc1
purified protein [7] = substrate: CCC(=O)c1ccccc1

Protein | Km (purified protein [1]) [µM] | kcat (purified protein [1]) [s⁻¹] | Km (purified protein [2]) [µM] | kcat (purified protein [2]) [s⁻¹] | Km (purified protein [3]) [µM] | kcat (purified protein [3]) [s⁻¹] | Km (purified protein [4]) [µM] | kcat (purified protein [4]) [s⁻¹] | Km (purified protein [5]) [µM] | kcat (purified protein [5]) [s⁻¹] | Km (purified protein [6]) [µM] | kcat (purified protein [6]) [s⁻¹] | Km (purified protein [7]) [µM] | kcat (purified protein [7]) [s⁻¹]
ssnBVMO (Tepidiforma thermophila) (protein) MTSNAPQSFDSIIVGAGFAGLYQLIRLRRAGFSARVIEAGDNVGGTWYWNRYPGARCDIESLQYQYAFDPGLAKEWRWTERYATQPEILRYIEFVADRYDLRRDIQFSTRVTAAHYDEAAARWTVHTDRGDLYSCRYLVMATGCLSVPKTPEVPGIETFEGESYHTGAWPHEGVDFTGKRVAVIGTGSSAIQSIPIIARQAAHLTVFQRTPNFSVPAHNYFLDEEQWRAAAERIAELRAEARTTSAGITGLPLNDVSALAVSEEERRREYERRWAMGGFAIGGAFNDIAINPDANETAAEFVRQKIREIVQDPETAEALCPRDYPFGTKRLCVDIAYYETFNRPNVKLVSIRDNPIAAITPKGVRLENGDEYEFDAIVYATGFDAMTGALLRIDIRGRDGLTLREKWEHGPRTYLGIQVAGFPNMFTITGPGSPSVLSNMIVSIEQHVDWVTDCLEYLRERDLATIEASPAAEDAWVNHVNEVANLTLYPRANSWYIGANVPGKPRVFMPYVGGVGAYAQKCAEVAANGYEGFILQPEPAALSR | 1280 ± 180 | 0.455 ± 0.026 | 2500 ± 2000 | 0.127 ± 0.038 | 3.7 ± 1.5 | 0.455 ± 0.038 | 2520 ± 610 | 0.335 ± 0.018 | 20.1 ± 9.6 | 0.671 ± 0.076 | 22 ± 12 | 0.76 ± 0.10 | 373 ± 39 | 0.152 ± 0.003
PTDH-L1-ssnBVMO (Tepidiforma thermophila) (protein) MTSNAPQSFDSIIVGAGFAGLYQLIRLRRAGFSARVIEAGDNVGGTWYWNRYPGARCDIESLQYQYAFDPGLAKEWRWTERYATQPEILRYIEFVADRYDLRRDIQFSTRVTAAHYDEAAARWTVHTDRGDLYSCRYLVMATGCLSVPKTPEVPGIETFEGESYHTGAWPHEGVDFTGKRVAVIGTGSSAIQSIPIIARQAAHLTVFQRTPNFSVPAHNYFLDEEQWRAAAERIAELRAEARTTSAGITGLPLNDVSALAVSEEERRREYERRWAMGGFAIGGAFNDIAINPDANETAAEFVRQKIREIVQDPETAEALCPRDYPFGTKRLCVDIAYYETFNRPNVKLVSIRDNPIAAITPKGVRLENGDEYEFDAIVYATGFDAMTGALLRIDIRGRDGLTLREKWEHGPRTYLGIQVAGFPNMFTITGPGSPSVLSNMIVSIEQHVDWVTDCLEYLRERDLATIEASPAAEDAWVNHVNEVANLTLYPRANSWYIGANVPGKPRVFMPYVGGVGAYAQKCAEVAANGYEGFILQPEPAALSR | 760 ± 120 | 0.301 ± 0.061 | 1590 ± 270 | 0.120 ± 0.023 | 6.3 ± 3.1 | 0.61 ± 0.11 | 3600 ± 790 | 0.459 ± 0.081 | 25.7 ± 2.5 | 0.536 ± 0.078 |  |  | 700 ± 140 | 0.371 ± 0.057
